Blank lines part the entries; values can stand above or below the molecule they belong to. No end group written: not given here.
Key:
human PCNA = biological target: T1, human PCNA (Homo sapiens, UniProt P12004); experiment: Isothermal titration calorimetry (ITC), PIP peptide titrated into wild-type PCNA; type: binding
T1 construct: His6 (C); made in house; host or cells: E. coli Codon Plus BL21(DE3) pLysS
Text: The wild-type and R426D peptides were expressed as GST fusions in E. coli, purified to homogeneity (see Materials and Methods) and used in isothermal titration calorimetry (ITC) assays with human PCNA purified from E. coli.
Recombinant PCNA, PCNA-Y250I, and the PIP peptides (wild-type, R426D) were expressed and purified as described in the Supplementary Materials section—“Expression and purification of recombinant proteins”. The proteins were dialyzed against three 4-litre changes of ITC buffer containing 10 mM sodium phosphate, pH 7.0, and 10 mM NaCl at 4 °C overnight. The concentrations of PCNA and PIP peptides were determined by measuring tyrosine absorption at A280nm. ITC titrations of peptides into PCNA were performed at 23 °C in the ITC buffer (10 mM sodium phosphate, pH 7.0, 10 mM NaCl) using a MicroCal VP-ITC system. The concentrations of injected wild-type and mutant PIP in the syringe varied from 200 to 500 μM, whereas PCNA in the ITC sample cell varied depending on the experiment from 20 to 50 μM PCNA monomer. The protein and peptide samples were degassed before the ITC run. Data analysis was performed using the MicroCal Origin 7.0 software (OriginLab Corporation, Northampton, MA, USA) and all experiments fit the single binding site model.
Supplementary Materials-Expression and purification of recombinant proteins
S1. Expression and purification of GST-PIP fusion proteins in Escherichia coli Wild-type p150 PIP and R426D peptides were constructed as GST-fusion proteins with a tyrosine at the C-terminus of the peptide. The C-terminal tyrosine was added to aid in peptide detection during the purification by measuring the absorbance at 280 nm. The DNA fragments encoding the GST fusion proteins were inserted into a pGEX-TEV vector, which is essentially a modified pGEX-2T vector where the thrombin cleavage site was replaced with a TEV cleavage site. The pGEX-TEV plasmid was digested with BamHI and EcoRI and ligated to DNA fragments encoding either the p150 PIP wild-type and R426D. The plasmids pGEX-TEV-PIP wild type and pGEX-TEV-PIP R426D were con-firmed by DNA sequencing and then expressed in Escherichia coli host strain TOPP2 (Strat-agene) with 100 µg/ml ampicillin to saturation at 37°C. The next day, the saturated cells were diluted to 0.05 OD measured at A600 nm and the cells were grown at 37°C until the cells reach the mid-exponential phase of 0.6-0.8 at OD A600 nm. The cells were then in-duced with 1 mM isopropyl-D-thiogalactopyranoside (IPTG) for 4 h. Eight litres of cell culture were grown each for the wild-type and R426D mutant. The cells were then har-vested by centrifugation in an Avanti J-26XP high-performance centrifuge from Beckman Coulter with a fixed angle rotor (JLA-8.1000) at 9000 x g for 30 min at 4°C. The pellet from 1 litre cells equivalent was lysed in 10 ml of lysis buffer containing 20 mM Tris pH 7.5, 1 M NaCl, 0.2 mM EDTA, 1 mM DTT, 50 µg/ml lysozyme, 1 mM AEBSF and one tablet of cOmplete™ Mini EDTA-free Protease Inhibitor Cocktail Tablets (Roche). The cell pellet was sonicated in the lysis buffer on ice, at power output level 4 with 10 seconds pulse on and 30 seconds off at 6 watts using a Misonix 3000 Ultrasonic cell disruptor and wider probe. The lysate was clarified by centrifugation for 30 min in an Avanti J-26XP with a fixed angle rotor 25.50 at 30966 x g at 4°C. The clarified supernatant was incubated on a nutator for 6 h at 4°C with 10 ml of glutathione-Sepharose (GSH) resin (Amersham) pre-washed and equilibrated with lysis buffer. After incubation the GSH resin was pelleted, the unbound supernatant was removed, and the resin was washed thrice with lysis buffer and twice with Tobacco Etch Virus (TEV) protease buffer (20 mM sodium phosphate pH 6.5, 50 mM NaCl, 2 mM DTT). The peptide was cleaved from the GSH resin by incubating in the presence of TEV protease overnight at 4°C. The next day, the supernatant was har-vested by centrifugation, and the GSH resin was washed twice with 20 mM sodium phos- […]

[1] = biological target: T2, proliferating cell nuclear antigen (PCNA), wild type (human, UniProt P12004 1-261); experiment: ITC; peptide (200 to 500 uM in the syringe) titrated into PCNA (20 to 50 uM monomer in the cell); 10 mM sodium phosphate pH 7.0, 10 mM NaCl, 23 °C; single binding site model; apparent Kd; settings: both partners purified
T2 construct: human PCNA purified from E. coli; Homo-trimeric ring (88.7 kDa as printed); Human is stated for the ITC; In the functional rows PCNA is the endogenous protein of the human HEK-293 S100 extract; also called human PCNA; source: E. coli, purified

mouse NIH3T3 cells = experiment: Localization of GFP-p150 relative to PCNA replication foci in mid S-phase NIH3T3 cells; type: cell-based; settings: for localization to heterochromatin foci: DAPI staining
Text: Cells in early S-phase show numerous small PCNA foci distributed throughout the nucleus. These foci can be resolved from each other using super-resolution microscopy but are difficult to resolve from each other by confocal microscopy. This makes protein localization to early S-phase PCNA foci difficult to assess using conventional tools for microscopy. Mid S-phase is the stage when perinuclear and peri-nucleolar chromatin are replicated. The corresponding PCNA foci are relatively large and distant from each other, making co-localization of a protein of interest with PCNA straightforward. Late S-phase is the stage when pericentric heterochromatin replicates. […] Because of these constraints, we focused our attention on cells with patterns of PCNA foci characteristic of mid S-phase. As reported in previous studies, we observed a distinct immunostaining pattern for PCNA with the monoclonal antibody PC10. During mid S-phase, staining of PCNA with PC10 occurred within foci located around the periphery of the nuclear envelope (Figure 4B, top panel, PC10). […] Asynchronously proliferating mouse NIH 3T3 cells were transduced with lentiviral vectors, and expression of wild-type and mutant forms of GFP-p150 was induced with doxycycline. Cells were fixed and permeabilized for PCNA detection with the PC10 monoclonal antibody. Mid-S phase cells were identified based upon their stereotypical pattern of PCNA staining at the nuclear periphery. […] The Pearson’s correlation coefficient of GFP WT-mp150 was 0.6, and 0.25 for the mutant GFP-p150 R426D. This is consistent with previous observations, that when CAF-1 is unable to bind to PCNA, it prematurely associates with pericentric heterochromatin in early and mid S-phase.
To study the localization of GFP CAF-1 p150 wild-type and mutants relative to that of PCNA, cDNAs encoding mouse p150 were cloned into a doxycycline-inducible lentiviral vector pCW-Cas9 plasmid encoding a TetON (minimal CMV) promoter (Addgene plasmid 50661). The Cas9 insert was replaced by wild-type or mutant mouse CAF-1 p150 using the restriction enzymes NheI and BamHI. GFP-p150 wild-type and mutant fusion proteins were excised from the EGFP-C1 vector (Clonetech) using Nhe1 and BamH1 restriction enzymes as previously reported. NheI and BamHI digested fragments were run on 0.8% agarose gel and the corresponding DNA bands: vector—pCW-Cas9 (7036 bp) and inserts—wild-type mp150, R426D (3983 bp) were gel purified using Qiagen DNA extraction spin prep columns. Purified DNAs were ligated using the Takara DNA ligase enzyme, following the manufacturer’s recommended protocol. Positive clones were selected on Luria-Bertani medium containing 100 µg/mL ampicillin, and after DNA isolation, the clones were verified by DNA sequencing. […]

T2 sequence (P12004 whole entry): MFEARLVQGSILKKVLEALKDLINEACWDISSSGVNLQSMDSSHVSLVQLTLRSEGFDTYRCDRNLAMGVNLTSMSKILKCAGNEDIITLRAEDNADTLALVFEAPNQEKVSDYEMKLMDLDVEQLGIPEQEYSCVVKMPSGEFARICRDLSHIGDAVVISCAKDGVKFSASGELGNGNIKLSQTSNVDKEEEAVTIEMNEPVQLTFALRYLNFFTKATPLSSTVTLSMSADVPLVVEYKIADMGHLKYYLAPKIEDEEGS
T1 sequence (P12004 whole entry): as above

Kd (result in words) (human PCNA; ITC at 296 K, 10 mM Na-phosphate (pH 7.0), 10 mM NaCl, R426D): No binding | heat exchange / binding to wild-type PCNA (human PCNA; ITC, 23 °C, 10 mM sodium phosphate, pH 7.0, 10 mM NaCl): did not observe any heat exchange
Molecule: KAEITDFFQKPKT [CAF-1 PIP R426D, R426D p150 PIP expressed as GST fusion with C-terminal tyrosine, TEV-cleaved and purified, used for ITC]

Kd [1]: 24 µM | dH [1]: -1.87 kcal/mol | stoichiometry N [1]: 0.83
B1: CAF-1 PIP wild-type peptide (expressed as a GST fusion) (peptide)
chain: IKAEKAEITRFFQKPKTPQA
modifications: also: expressed as a GST fusion

B2: GFP-p150 R426D: GFP fusion of mouse CAF-1 p150 with R426D mutation (protein, UniProt Q9QWF0 1-911, looked up, variant R426D)
Chromatin assembly factor 1 …: MLEEPEAATRTAAAVDCKDRPGFPVKRLIQARLPFKRLNLVPKEKVEEDTSPKAAVESKVPDLQLSLGTFESQCHTGSHVGLSTKLVGGQGPIDSFLRATIKPVPSVVIIDLTENCSDIPDSPEGHSELSPDTAGVVTTVEGAAKQQEHSAAELCLLETPSDITCHMEEEPGSPGDPKRTGDCQAGSLQSCPELTPGSRTCPTKELSSWSKAGDLLFIEKVPVVVLEDILATKPSIASLPMMSLDRSVTSESEILESCPEDDSILSHSSTNSSSPTSSPEGPSTPPEHRGGRSSPSTPACRVAKNFVKGSTEKGRSKLHRDREQQREEKEKLREEIRRAKEEARKKKEEEKELKEKERREKREKDEKEKAEKQRLKEEKRKERQEALEAKLEEKRKKEEEKRLREEEKRLREEEKRIKAEKAEITDFFQKPKTPQAPKTLAGSCGKFAPFEIKEHMVLAPRCRAALDQDLCDQLDQLLQQQSVASTFLSDLKSRLPLRSGPTRVCGHDTDIMNRDVVIVESSKVDGVSERKKFGRMKLLQFSENHRPAYWGTWNKKTAIIRPRNPWAQDKDLLDYEVDSDDEWEEEEPGESLSHSEGDEDDDVGEDEDEDDGFFVPHGYLSEDEGVTEECADPENHKVHQKLKAKEWDELLAKGKRFRVLQPVHVGCVWASEAANCTSSDLKLLQQFTACLLDVASPDEPEPGASRREKRDQHILAQLLPLLHGNVNGSKVIIHEFQEQCRRGLLTLPSPTPHLQMPNLEDAVAVPSKARLKRLISENSAYEKRPNFRMCWYVHPEVLKSFGQECLPVPCQWTYITTMPSAPREDSGSASTEGPGQSTPMLLKRKPAATMCITQFMKKRRYDGQVGSGDMDGFQADTEEDEEDDTDCMIIDVPDVGSDVSEAPIPAPTLCK
modifications: GFP fusion
notes: GFP fusion of mouse CAF-1 p150 with R426D mutation
Pearson’s correlation coefficient (mouse NIH3T3 cells; GFP-p150 vs PCNA (PC10), mid S-phase NIH3T3 cells, doxycycline 2 µg/mL): 0.25 | localization to heterochromatin foci (mouse NIH3T3 cells; mid S-phase): anomalously found largely within the nuclear interior and the large heterochromatic foci | localization to heterochromatin foci (mouse NIH3T3 cells; mid S-phase, listed as CAF-1 p150 R426D): more localized to the pericentric heterochromatin | localization to PCNA foci at nuclear periphery (mouse NIH3T3 cells; mid S-phase, confocal microscopy, PC10 staining): did not co-localize with PCNA foci at the nuclear periphery

Reference: publication PMC9570017, “Unorthodox PCNA Binding by Chromatin Assembly Factor 1” (International Journal of Molecular Sciences, 2022)
